Source: publication PMC4612572
One block for each molecule: values may come before it.

Assays:
[1] = target: p766-Gravin (human (endogenous in U2OS; cells of Figure 2E-H not stated)) (UniProt Q02952); test: proximity ligation; in situ PLA in U2OS cells stably expressing the mother centriole marker myc-centriolin; signal at the mother spindle pole relative to the daughter spindle pole
[2] = target: p766-Gravin (human (endogenous in U2OS; cells of Figure 2E-H not stated)) (UniProt Q02952); test: proximity ligation; in situ PLA with antibodies to p766-Gravin and to Aurora A or Plk1 in fixed cells at different stages of the cell cycle; integrated signal per cell normalised to interphase cells; n = 3 experiments
[3] = target: Gravin (human (endogenous in HEK293)) (UniProt Q02952)

fold PLA signal, mother against daughter spindle pole [1]: 2.35 fold
fold PLA signal, metaphase against interphase cells [2]: 10.3 fold
Molecule: polo-like kinase 1 (from UniProt P53350 1-603) (enzyme)

Kemptide (300 uM) phosphorylation (32P incorporation) in Gravin immune complexes isolated from mitotic lysates; share blocked by the Aurora A inhibitor VX-680 [3]: 33.5%
fold PLA puncta, mother against daughter spindle pole [1]: 4.16 fold
fold PLA signal, metaphase against interphase cells [2]: 3.86 fold
B1: Aurora A (enzyme)
chain: MDRSKENCISGPVKATAPVGGPKRVLVTQQFPCQNPLPVNSGQAQRVLCPSNSSQRIPLQAQKLVSSHKPVQNQKQKQLQATSVPHPVSRPLNNTQKSKQPLPSAPENNPEEELASKQKNEESKKRQWALEDFEIGRPLGKGKFGNVYLAREKQSKFILALKVLFKAQLEKAGVEHQLRREVEIQSHLRHPNILRLYGYFHDATRVYLILEYAPLGTVYRELQKLSKFDEQRTATYITELANALSYCHSKRVIHRDIKPENLLLGSAGELKIADFGWSVHAPSSRRTTLCGTLDYLPPEMIEGRMHDEKVDLWSLGVLCYEFLVGKPPFEANTYQETYKRISRVEFTFPDFVTEGARDLISRLLKHNPSQRPMLREVLEHPWITANSSKPSNCQNKESASKQS
